Measured values from the supplement of paper PMC12042874.
± gives the uncertainty stated by the source.

experiment: amyloid nucleation score (Sup35N fusion, yeast selection) (log enrichment); library NNK2; higher = more nucleation; inactive = no reads after selection
How it was run: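 Sup35N was fused to peptides of 20 random codons and expressed in psi-negative yeast, which were induced with 100 μM copper sulfate for 24 hours and then grown on medium lacking adenine and uracil for 7 days at 30°C. Plasmid inserts from input and output were sequenced on Illumina. The nucleation score is the DiMSum log enrichment of output over input reads, centred on the mode score of non-aggregating sequences. Sequences with under 100 input reads were left out, and random libraries had three technical output replicates.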

Substance | amyloid nucleation score
RLENMCMASPR | 0.464 ± 0.46
RLFVPFVFFQAMPTEREPFH | -0.79 ± 1
RLFYGCITGIVVSSILGVCM | 2.47 ± 0.21
RLFYYSSFYKDY | inactive
RLGRC | 0.94 ± 0.33
RLIIPIQSCLWGGWYRTGET | 8.106 ± 0.054
RLILY | -0.775 ± 0.43
RLINRSDEVYSFLFKRRGSK | inactive
RLIRFSIMEV | -0.291 ± 0.54
RLLHYAFAFTARV | 3.15 ± 0.068
RLLSTCMILMMASRTCYVYN | 0.69 ± 0.52
RLMFLVFSESSKYSALHMWG | 0.939 ± 0.19
RLPHSVSALSLKILGGARAR | 0.02 ± 0.56
RLRFPSPFRTVNWSFIRFAR | 5.03 ± 0.069
RLRNI | 0.399 ± 0.2
RLRYM | -0.631 ± 0.76
RLSDLTQVLLDSLTRCGWWG | 0.841 ± 0.43
RLSFQSCCLPFVYWNWW | 7.738 ± 0.048
RLSGRVTCSVNVGHSLKGTV | 4.529 ± 0.045
RLSLNFDVRLC | 1.21 ± 0.61
RLSPPLCVLIYIMRYLNGYW | 0.42 ± 0.66
RLTQCLVHRPYPV | 0.572 ± 0.3

Substance | amyloid nucleation score
RLYKSARVASHVDLGCTFRC | 1.35 ± 0.18
RMIPCLLRFGTYLFF | -0.509 ± 1.1
RMNWGSNFLEE | -0.663 ± 0.32
RMRCTIMLMTGKRTCYLMRE | -0.216 ± 0.41
RMSIWRFRMSLAQDGLGRFQ | 5.564 ± 0.044
RMVTVAS | 1.68 ± 0.32
RMWDSSCSLRGMRLGVYRAR | 0.396 ± 0.53
RMYLVYNFLRLDLSARVVLA | inactive
RNADI | 0.343 ± 0.46
RNAKMMTSSLVYNWFVFAER | 5.353 ± 0.045
RNAQPLNGPRSPVSGTDWYS | 0.092 ± 1.1
RNFDMPLLAYGMTWEQLMEF | 4.51 ± 0.058
RNFRSCP | 0.797 ± 0.44
RNIGAR | 0.635 ± 0.16
RNPNVEVCRKQFRVGCSLAN | -0.931 ± 0.39
RNSSYIDFIGRWH | inactive
RNTTKWKMMTLTFNCTRRKK | -0.766 ± 1
RNYEGPPGDLGQQVLSHSMP | -0.853 ± 0.63
RPHTLGHRCSCQSNFFLLPL | 0.025 ± 1.1
RPLLKRKESM | 0.573 ± 0.28
RPNFFVLNSNMNNYVQARVP | 4.59 ± 0.047
RPNNLDMVH | 0.619 ± 0.57

Substance | amyloid nucleation score
RPRRSTGCIFVDCKSKQHCI | 2.84 ± 0.15
RPTHEAF | 5.87 ± 0.089
RQMPVGGCVFMTKVCKT | 0.232 ± 0.64
RQVANWAVVIGNPMVMNPEG | -0.295 ± 0.63
RQVSHVNFAVLNINYNWYRS | 8.16 ± 0.084
RRETRMGVSSVLDPVAGRWP | 1.58 ± 0.17
RRLWGIALYRVSLVVFGSLY | -0.354 ± 0.25
RRMYMQPTKLPFYIPGRMCP | inactive
RRSTWSISLS | -0.916 ± 0.45
RRSWDTYMGERGHQLPNPCG | 0.93 ± 0.36
RRYMSVDSK | inactive
RRYMVMSDWLDKPWWGYFGV | -0.855 ± 0.24
RSCMMCTT | 0.266 ± 0.41
RSCPFAFGEGG | 0.782 ± 0.55
RSCSFRRLSGSVETLSGWAK | 0.35 ± 0.43
RSDRVIGDMTGAECITLGRL | -0.82 ± 0.45
RSDVFIGTSIFGALSCV | -0.025 ± 0.45
RSFGSYCAGEGTRSPRDSRG | 0.172 ± 0.65
RSFLWVFRKYRGW | 0.783 ± 0.66
RSFMVRRFVNANIEIMIRRI | inactive
RSGESRWTYYLVEIYFDGSF | -0.913 ± 0.78
RSGWVEPSNITVIWVKMLVQ | 0.166 ± 0.55

Substance | amyloid nucleation score
RSGYGWTVLFERLSKHCEFK | -0.301 ± 0.39
RSHMYSGYIYLIQKTFLREV | -1.29 ± 0.26
RSHPKMMSDICSV | 0.178 ± 0.65
RSHTTGLPS | 0.718 ± 0.15
RSIDRYRHHNLCRNQYVM | -0.693 ± 1.1
RSIWMKLCMWIECSDKETRF | 4.17 ± 0.13
RSLLVEFRRYKQRH | 6.238 ± 0.062
RSLSA | 1.02 ± 0.34
RSMSRRGFLCLHR | 0.948 ± 0.67
RSMYFGVQSLMYRSRLPKGS | 4.01 ± 0.067
RSPDKDSMQTTLLIRRVTSW | 1.14 ± 0.48
RSQIPNYYWQYMLVYSYLQG | 0.201 ± 0.74
RSWKLGVDGWPLMSEFP | 1.64 ± 0.29
RTARPILDPC | inactive
RTCSRGSFTYMEIGNVGRGC | 0.275 ± 0.5
RTEDPKTDYVKRGKRKWRVW | -0.129 ± 1.1
RTLFV | -0.146 ± 0.63
RTRCYCVYFRLLVHFA | 0.057 ± 1.1
RTSSL | -0.336 ± 0.49
RTYGYRDIQVQYRFCFCRGD | 8.589 ± 0.057
